This passage reports CaM co-immunoprecipitated, normalized to WT (relative to WT) results from paper PMC7518097.

The target in the test is Kv7.2 G279S (human). As to the kind of experiment: co-IP; lysates of transfected cells incubated with protein A magnetic beads pre-coated with guinea pig anti-KCNQ2-C2 antibodies; CaM detected by western blot (mouse anti-calmodulin); CaM band normalized to WT. For orientation: A western blot detects proteins with antibodies after separation by electrophoresis.

In the case of “calmodulin (from UniProt P0DP23 1-149) (natural protein)”, the CaM co-immunoprecipitated, normalized to WT (relative to WT) stood at 0.71.
